For two molecules, allergen specific IgE antibody and percent inhibition of IgE binding to Bos d 23k results are on record in patent US20120076826A1.

The target in experiment [1] is recombinant Can f 4 (dog). As to the kind of experiment: experimental rCan f 4 ImmunoCAP.
Experiment [2] has as its target IgE of Bos d 23k-reactive serum C. In words: ImmunoCAP IgE inhibition; serum preincubated with 100 µg/mL rCan f 4, Bos d 23k immobilized.
Experiment [3] addresses IgE of Bos d 23k-reactive serum A. Described as above.
Experiment [4] concerns the target IgE of Bos d 23k-reactive serum B. The description is as above.

Regarding myeloma IgE (antibody), the allergen specific IgE antibody in experiment [1] worked out at 0.023 kUA/L.

B1: recombinant Can f 4 (protein, not shown: small tags and cut ends)
chain: QLPLPNVLTQVSGPWKTLYISSNNLDKIGDNGPFRIYMRGINVDIPRLKMSFNFYVKVDGECVENSVGASIGRDNLIKGEYNGGNYFRIIDMTPNALIGYDVNVDSKGKITKVALLMGRGAHVNEEDIAKFKKLSREKGIPEENIIYLGDTDNCPNHE
modifications: N-terminal Met; C-terminal His6 tag
B1: the percent inhibition of IgE binding to Bos d 23k in experiment [2], in experiment [3] and in experiment [4] was greater than 96% each time.
